The target in data set [1] is T1, full length recombinant CD95 protein (FL-CD95), P25445.
T1 chain: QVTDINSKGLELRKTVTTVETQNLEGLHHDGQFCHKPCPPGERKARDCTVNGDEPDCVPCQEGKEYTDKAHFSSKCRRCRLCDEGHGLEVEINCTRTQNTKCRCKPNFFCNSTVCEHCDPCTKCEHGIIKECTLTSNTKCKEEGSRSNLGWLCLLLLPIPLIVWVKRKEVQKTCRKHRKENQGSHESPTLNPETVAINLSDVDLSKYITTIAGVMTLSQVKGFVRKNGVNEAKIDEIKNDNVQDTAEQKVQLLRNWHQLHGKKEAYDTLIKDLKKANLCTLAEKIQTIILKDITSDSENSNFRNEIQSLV

For data set [2], the target named is alpha-1-anti-trypsin (A1AT), P01009.
Data set [3] has as its target T2, C-terminal domain of CD95 (amino acids 157-320; C-CD95), P25445.
T2 chain: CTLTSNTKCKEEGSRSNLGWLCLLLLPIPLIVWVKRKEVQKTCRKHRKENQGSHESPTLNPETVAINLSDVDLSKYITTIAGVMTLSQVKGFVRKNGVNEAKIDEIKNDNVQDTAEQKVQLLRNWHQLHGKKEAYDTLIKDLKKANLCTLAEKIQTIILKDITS

For data set [4], the target named is T3, human neutrophil elastase (ELANE).
T3 chain: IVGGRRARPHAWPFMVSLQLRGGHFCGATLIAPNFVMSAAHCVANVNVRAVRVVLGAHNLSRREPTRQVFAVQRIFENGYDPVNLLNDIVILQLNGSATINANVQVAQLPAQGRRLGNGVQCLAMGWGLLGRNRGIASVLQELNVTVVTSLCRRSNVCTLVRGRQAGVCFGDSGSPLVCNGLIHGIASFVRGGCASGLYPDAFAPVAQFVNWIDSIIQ

In data set [5] the target is T4, human neutrophil elastase (ELANE) (human, UniProt P08246 30-247).
T4 construct: Native protein: in human PMN conditioned media in the co-immunoprecipitation, purified native ELANE (Abcam) in the enzyme and cleavage assays; also called human ELANE
T4 sequence: T3 chain
The data set can be described thus: from the inventors' studies of ECP as allosteric activator of ELANE (chromogenic substrate kinetics, FIG. 7); method of the KD not stated.

Sequence of alpha-1-anti-trypsin (A1AT), P01009 (P01009 whole entry, looked up, the tested form may be a part): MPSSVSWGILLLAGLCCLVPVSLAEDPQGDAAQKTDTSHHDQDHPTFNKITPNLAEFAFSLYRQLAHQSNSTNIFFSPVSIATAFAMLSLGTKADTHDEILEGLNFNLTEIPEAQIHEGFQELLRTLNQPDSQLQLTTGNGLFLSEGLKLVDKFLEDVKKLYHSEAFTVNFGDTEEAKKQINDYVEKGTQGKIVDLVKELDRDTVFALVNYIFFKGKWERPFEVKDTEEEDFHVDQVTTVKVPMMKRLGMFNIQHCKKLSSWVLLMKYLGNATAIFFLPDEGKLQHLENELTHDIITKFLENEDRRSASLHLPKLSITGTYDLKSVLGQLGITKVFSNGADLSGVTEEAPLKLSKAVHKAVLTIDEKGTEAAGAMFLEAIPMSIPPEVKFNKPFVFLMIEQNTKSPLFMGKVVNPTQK

B1: cathepsin G (CTSG) (protein)
chain: IIGGRESRPHSRPYMAYLQIQSPAGQSRCGGFLVREDFVLTAAHCWGSNINVTLGAHNIQRRENTQQHITARRAIRHPQYNQRTIQNDIMLLQLSRRVRRNRNVNPVALPRAQEGLRPGTLCTVAGWGRVSMRRGTDTLREVQLRVQRDRQCLRIFGSYDPRRQICVGDRRERKAAFKGDSGGPLLCNNVAHGIVSYGKSSGVPPEVFTRVSSFLPWIRTTMRS
As to B1, the “degradation of purified CD95” value in data set [1] is “cleaved purified CD95 with an identical degradation pattern to ELANE”.

B2: human neutrophil elastase (ELANE) (protein)
chain: T3 chain
Regarding B2, in data set [1], the “degradation of purified CD95” value is “ELANE degrades the C-terminal domain of purified CD95”. In addition, the “ELANE catalytic activity (chromogenic substrate assay)” value in data set [2] is “loss of ELANE catalytic activity was confirmed by a chromogenic substrate assay”. For the same molecule, in data set [3], the “degradation by SDS-PAGE followed by coomassie blue staining” value is given as “ELANE preferentially cleaves the C-terminal domain of CD95”.

B3: murine neutrophil elastase (mELANE) (protein)
chain: IVGGRPARPHAWPFMASLQRRGGHFCGATLIARNFVMSAAHCVNGLNFRSVQVVLGAHDLRRQERTRQTFSVQRIFENGFDPSQLLNDIVIIQLNGSATINANVQVAQLPAQGQGVGDRTPCLAMGWGRLGTNRPSPSVLQELNVTVVTNMCRRRVNVCTLVPRRQAGICFGDSGGPLVCNNLVQGIDSFIRGGCGSGLYPDAFAPVAEFADWINSIIRSHNDHLLTHPKDREGRTN
Regarding B3, the “degradation of purified CD95” value in data set [1] is “cleaved purified CD95 with an identical degradation pattern to ELANE”.

B4: eosinophil cationic protein (ECP) (enzyme)
chain: RPPQFTRAQWFAIQHISLNPPRCTIAMRAINNYRWRCKNQNTFLRTTFANVVNVCGNQSIRCPHNRTLNNCHRSRFRVPLLHCDLINPGAQNISNCTYADRPGRRFYVVACDNRDPRDSPRYPVVPVHLDTTI
notes: also called ribonuclease 3
With B4, the “kcat of ELANE for its substrate (chromogenic substrate activity assay)” value in data set [4] is “increases kcat for its substrate by 12-fold without altering KM”. For the same molecule, the Kd in data set [5] is approximately 20 nM.

B5: proteinase 3 (PRTN3) (protein)
chain: IVGGHEAQPHSRPYMASLQMRGNPGSHFCGGTLIHPSFVLTAAHCLRDIPQRLVNVVLGAHNVRTQEPTQQHFSVAQVFLNNYDAENKLNDVLLIQLSSPANLSASVATVQLPQQDQPVPHGTQCLAMGWGRVGAHDPPAQVLQELNVTVVTFFCRPHNICTFVPRRKAGICFGDSGGPLICDGIIQGIDSFVIWGCATRLFPDFFTRVALYVDWIRSTLR
For B5, in data set [1], the “degradation of purified CD95” value is “cleaved purified CD95 with an identical degradation pattern to ELANE”.

One may read the Kd as the free concentration of one partner at which half of the binding sites on the other are occupied at equilibrium, for simple one-to-one binding. A high value points to lower affinity.

The values above are taken from patent US20260144854A1 (UNIVERSITY OF CHICAGO, published 2026).
